Assays:
[1] = target: T1, HIV-1 gp120 monomer, strain HxBc2 (HIV-1, strain HxBc2), P04578; assay: SPR; details: remark: other sources report otherwise
[2] = target: T1, HIV-1 gp120 monomer, strain HxBc2 …; assay: SPR; details: remark: other sources report otherwise; remark: listed apart in the source

B1: wild-type cyanovirin-N (WT CV–N), P81180 1-101 (natural protein)
chain: LGKFSQTCYNSAIQGSVLTSTCERTNGGYNTSSIDLNSVIENVDGSLKWQPSNFIETCRNTQLAGSSELAAECKTRAQQFVSTKINLDDHIANIDGTLKYE
Kd [1]: 250 nM
Kd [2]: 260 nM
